In publication PMC4959569:

B1: EWS-FLI1: DON (protein)
parent chain: MASTDYSTYSQAAAQQGYSAYTAQPTQGYAQTTQAYGQQSYGTYGQPTDVSYTQAQTTATYGQTAYATSYGQPPTGYTTPTAPQAYSQPVQGYGTGAYDTTTATVTTTQASYAAQSAYGTQPAYPAYGQQPAATAPTRPQDGNKPTETSQPQSSTGGYNQPSLGYGQSNYSYPQVPGSYPMQPVTAPPSYPPTSYSSTQPTSYDQSSYSQQNTYGQPSSYGQQSSYGQQSSYGQQPPTSYPPQTGSYSQAPSQYSQQSSSYGQQSSFRQDHPSSMGVYGQESGGFSGPGENRSMSGPDNRGRGRGGFDRGGMSRGGRGGGRGGMGSAGERGGFNKPGGPMDEGPDLDLGPPVDPDEDSDNSAIYVQGLNDSVTLDDLADFFKQCGVVKMNKRTGQPMIHIYLDKETGKPKGDATVSYEDPPTAKAAVEWFDGKDFQGSKLKVSLARKKPPMNSMRGGLPPREGRGMPPPLRGGPGGPGGPGGPMGRMGGRGGDRGGFPPRGPRGSRGNPSGGGNVQHRAGDWQCPNPGCGNQNFAWRTECNQCKAPKPEGFLPPPFPPPGGDRGRGGPGGMRGGRGGLMDRGGPGGMFRGGRGGDRGGFRGGRGMDRGGFGGGRRGGPGGPPGPLMEQMGGRRGGRGGPGKMDKGEHRQERRDRPY
B2: EWS-FLI1: STZ (protein)
parent chain: B1 parent chain

Assays:
[1] = Western blot densitometry, antibody 7.3; settings: glycan lost; control: untreated SK-N-MC cells
[2] = Q-PCR normalised to EWS-FLI1 protein level; settings: control: mock treated SK-N-MC cells

Protein	expression_or_secretion, percent_of_wt [1]	other: transcriptional repression of target gene ([2]; glycan lost)	other: transcriptional activation of target gene, fold_change ([2]; glycan gained)	other: transcriptional repression of target gene ([2]; glycan gained)
B1	decreases	no change	–	–
B2	–	–	no change	no change
